Measurements taken from patent US20100260668A1 (published 2010).

Experiments:
VEGF 1-165 aa = target: T1, VEGF 1-165 aa (UniProt P15692 27-191); assay: direct bind ELISA (N-term VD);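 note: ELISA screen of antibodies for binding to plate-immobilized target antigen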
T1 construct: Bought antigen coated on the ELISA plate

HGF-His tag = target: T2, HGF-His tag (UniProt P14210 32-728); assay: direct bind ELISA (C-term VD)
T2 construct: Bought antigen coated on the ELISA plate; not shown: His tag

[1] = target: VEGF (VEGF 1-165 aa, R&D Systems 293-VE-010) (UniProt P15692 27-191); assay: Direct bind ELISA, VEGF coated on plate;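 note: ELISA screening of antibodies for binding to the plate-coated target antigen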
Chain of VEGF (VEGF 1-165 aa, R&D Systems 293-VE-010) (P15692 other isoform, or with tags, fused parts or gaps limits assumed): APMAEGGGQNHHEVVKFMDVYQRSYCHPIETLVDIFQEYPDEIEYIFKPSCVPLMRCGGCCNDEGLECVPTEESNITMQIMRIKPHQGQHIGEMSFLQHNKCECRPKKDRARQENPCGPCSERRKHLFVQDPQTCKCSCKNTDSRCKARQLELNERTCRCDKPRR

T1 sequence (P15692 other isoform, or with tags, fused parts or gaps limits assumed): as above
T2 sequence (P14210 32-728 limits assumed): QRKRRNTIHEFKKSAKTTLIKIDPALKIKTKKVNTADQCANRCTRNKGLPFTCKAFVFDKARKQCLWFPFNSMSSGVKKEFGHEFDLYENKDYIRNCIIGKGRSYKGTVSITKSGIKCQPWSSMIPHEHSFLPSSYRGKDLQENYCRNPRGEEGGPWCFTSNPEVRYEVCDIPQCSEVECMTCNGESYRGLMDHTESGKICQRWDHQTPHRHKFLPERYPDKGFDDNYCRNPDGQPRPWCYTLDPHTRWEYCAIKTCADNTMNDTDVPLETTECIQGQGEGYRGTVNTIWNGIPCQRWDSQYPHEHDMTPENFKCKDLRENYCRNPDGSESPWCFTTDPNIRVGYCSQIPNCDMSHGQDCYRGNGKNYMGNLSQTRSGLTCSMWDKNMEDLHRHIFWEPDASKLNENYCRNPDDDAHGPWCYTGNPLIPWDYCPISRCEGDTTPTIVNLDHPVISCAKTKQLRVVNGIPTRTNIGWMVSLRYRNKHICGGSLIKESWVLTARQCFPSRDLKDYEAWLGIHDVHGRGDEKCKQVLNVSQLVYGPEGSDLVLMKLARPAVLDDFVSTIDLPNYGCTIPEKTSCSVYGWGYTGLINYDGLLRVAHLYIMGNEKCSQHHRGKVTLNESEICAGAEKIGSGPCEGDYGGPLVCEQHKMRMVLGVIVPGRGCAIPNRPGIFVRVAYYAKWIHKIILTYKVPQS

| EC50 (VEGF 1-165 aa) | EC50 (HGF-His tag) | EC50 [1] | Binder |
| --- | --- | --- | --- |
| 13.8 nM | 4.71 nM | – | DVD652 (bispecific antibody, human IgG1, kappa, DVD-Ig; N-term VD AB071 (VEGF), C-term VD AB012 (HGF); HC linker long, LC linker short; vectors V1/V2) heavy: not shown light: DIQMTQSPSSLSASVGDRVTITCRASQVIRRSLAWYQQKPGKAPKLLIYAASNLASGVPSRFSGSGSGTDFTLTISSLQPEDFATYYCQQSNTSPLTFGQGTKVEIKRTVAAPDIQMTQSPSSVSASVGDRVTITCRASQGISSWLAWYQQKPGKAPNLLIYEASSLQSGVPSRFGGSGSGTDFTLTISSLQPEDFATYYCQQANGFPWTFGQGTKVEIKRTVAAPSVFIFPPSDEQLKSGTASVVCLLNNFYPREAKVQWKVDNALQSGNSQESVTEQDSKDSTYSLSSTLTLSKADYEKHKVYACEVTHQGLSSPVTKSFNRGEC |
| 30.7 nM | 0.49 nM | – | DVD646 (bispecific antibody, human IgG1, kappa, DVD-Ig; N-term VD AB071 (VEGF), C-term VD AB012 (HGF); HC linker long, LC linker long; vectors V1/V2) heavy: not shown light: DIQMTQSPSSLSASVGDRVTITCRASQVIRRSLAWYQQKPGKAPKLLIYAASNLASGVPSRFSGSGSGTDFTLTISSLQPEDFATYYCQQSNTSPLTFGQGTKVEIKRTVAAPSVFIFPPDIQMTQSPSSVSASVGDRVTITCRASQGISSWLAWYQQKPGKAPNLLIYEASSLQSGVPSRFGGSGSGTDFTLTISSLQPEDFATYYCQQANGFPWTFGQGTKVEIKRTVAAPSVFIFPPSDEQLKSGTASVVCLLNNFYPREAKVQWKVDNALQSGNSQESVTEQDSKDSTYSLSSTLTLSKADYEKHKVYACEVTHQGLSSPVTKSFNRGEC |
| 28.7 nM | 0.94 nM | – | DVD658 (bispecific antibody, human IgG1, kappa, DVD-Ig; N-term VD AB071 (VEGF), C-term VD AB012 (HGF); HC linker short, LC linker long; vectors V1/V2) heavy: not shown light: DIQMTQSPSSLSASVGDRVTITCRASQVIRRSLAWYQQKPGKAPKLLIYAASNLASGVPSRFSGSGSGTDFTLTISSLQPEDFATYYCQQSNTSPLTFGQGTKVEIKRTVAAPSVFIFPPDIQMTQSPSSVSASVGDRVTITCRASQGISSWLAWYQQKPGKAPNLLIYEASSLQSGVPSRFGGSGSGTDFTLTISSLQPEDFATYYCQQANGFPWTFGQGTKVEIKRTVAAPSVFIFPPSDEQLKSGTASVVCLLNNFYPREAKVQWKVDNALQSGNSQESVTEQDSKDSTYSLSSTLTLSKADYEKHKVYACEVTHQGLSSPVTKSFNRGEC |
| 1.72 nM | 4.17 nM | – | DVD648 (bispecific antibody, human IgG1, kappa, DVD-Ig; HC linker long, LC linker short; vectors V1/V2) heavy: not shown light: DIQMTQSPSSLSASVGDRVTITCSASQDISNYLNWYQQKPGKAPKVLIYFTSSLHSGVPSRFSGSGSGTDFTLTISSLQPEDFATYYCQQYSTVPWTFGQGTKVEIKRTVAAPDIQMTQSPSSVSASVGDRVTITCRASQGISSWLAWYQQKPGKAPNLLIYEASSLQSGVPSRFGGSGSGTDFTLTISSLQPEDFATYYCQQANGFPWTFGQGTKVEIKRTVAAPSVFIFPPSDEQLKSGTASVVCLLNNFYPREAKVQWKVDNALQSGNSQESVTEQDSKDSTYSLSSTLTLSKADYEKHKVYACEVTHQGLSSPVTKSFNRGEC |
| – | – | 2380 nM | DVD527 (bispecific antibody, IgG1, DVD-Ig, outer AB073 / inner AB071; HC linker long, LC linker short; also called DVD527H; DVD527L) VH: EVQLQQSGPELEKPGASVKISCKASGYSFTGYNMNWVKQSNGKSLEWIGNIDPYFGGTNYNQKFKGKATLTVDKSSSTAYMQLKSLTSEDSAVYYCARNYDYDGGCFDYWGQGTTLTVSSASTKGPSVFPLAPEVQLVESGGGLVQPGGSLRLSCAASGFTINASWIHWVRQAPGKGLEWVGAIYPYSGYTNYADSVKGRFTISADTSKNTAYLQMNSLRAEDTAVYYCARWGHSTSPWAMDYWGQGTLVTVSS VL: QAVVTQESALTTSPGETVTLTCRSSTGAVTTSNYANWVQEKPDHLFTGLIGGTNNRAPGVPARFSGSLIGDKAALTITGAQTEDEAIYFCALWYSNHWVFGGGTKLTVLGQPKAAPDIQMTQSPSSLSASVGDRVTITCRASQVIRRSLAWYQQKPGKAPKLLIYAASNLASGVPSRFSGSGSGTDFTLTISSLQPEDFATYYCQQSNTSPLTFGQGTKVEIKR |
| – | – | 27.7 nM | DVD528 (bispecific antibody, IgG1, DVD-Ig, outer AB071 / inner AB073; HC linker long, LC linker short; also called DVD528H; DVD528L) VH: EVQLVESGGGLVQPGGSLRLSCAASGFTINASWIHWVRQAPGKGLEWVGAIYPYSGYTNYADSVKGRFTISADTSKNTAYLQMNSLRAEDTAVYYCARWGHSTSPWAMDYWGQGTLVTVSSASTKGPSVFPLAPEVQLQQSGPELEKPGASVKISCKASGYSFTGYNMNWVKQSNGKSLEWIGNIDPYFGGTNYNQKFKGKATLTVDKSSSTAYMQLKSLTSEDSAVYYCARNYDYDGGCFDYWGQGTTLTVSS VL: DIQMTQSPSSLSASVGDRVTITCRASQVIRRSLAWYQQKPGKAPKLLIYAASNLASGVPSRFSGSGSGTDFTLTISSLQPEDFATYYCQQSNTSPLTFGQGTKVEIKRTVAAPQAVVTQESALTTSPGETVTLTCRSSTGAVTTSNYANWVQEKPDHLFTGLIGGTNNRAPGVPARFSGSLIGDKAALTITGAQTEDEAIYFCALWYSNHWVFGGGTKLTVLG |
| 5.31 nM | 0.29 nM | – | DVD644 (bispecific antibody, human IgG1, kappa, DVD-Ig; HC linker long, LC linker long; vectors V1/V2) heavy: not shown light: DIQMTQSPSSLSASVGDRVTITCRASQDVSTAVAWYQQKPGKAPKLLIYSASFLYSGVPSRFSGSGSGTDFTLTISSLQPEDFATYYCQQSYTTPPTFGQGTKVEIKRTVAAPSVFIFPPDIQMTQSPSSVSASVGDRVTITCRASQGISSWLAWYQQKPGKAPNLLIYEASSLQSGVPSRFGGSGSGTDFTLTISSLQPEDFATYYCQQANGFPWTFGQGTKVEIKRTVAAPSVFIFPPSDEQLKSGTASVVCLLNNFYPREAKVQWKVDNALQSGNSQESVTEQDSKDSTYSLSSTLTLSKADYEKHKVYACEVTHQGLSSPVTKSFNRGEC |
| 7.87 nM | 1.27 nM | – | DVD656 (bispecific antibody, human IgG1, kappa, DVD-Ig; HC linker short, LC linker long; vectors V1/V2) heavy: not shown light: DIQMTQSPSSLSASVGDRVTITCRASQDVSTAVAWYQQKPGKAPKLLIYSASFLYSGVPSRFSGSGSGTDFTLTISSLQPEDFATYYCQQSYTTPPTFGQGTKVEIKRTVAAPSVFIFPPDIQMTQSPSSVSASVGDRVTITCRASQGISSWLAWYQQKPGKAPNLLIYEASSLQSGVPSRFGGSGSGTDFTLTISSLQPEDFATYYCQQANGFPWTFGQGTKVEIKRTVAAPSVFIFPPSDEQLKSGTASVVCLLNNFYPREAKVQWKVDNALQSGNSQESVTEQDSKDSTYSLSSTLTLSKADYEKHKVYACEVTHQGLSSPVTKSFNRGEC |
| 70.2 nM | 214 nM | – | DVD662 (bispecific antibody, human IgG1, kappa, DVD-Ig; HC linker short, LC linker short; vectors V1/V2) heavy: not shown light: DIQMTQSPSSLSASVGDRVTITCRASQDVSTAVAWYQQKPGKAPKLLIYSASFLYSGVPSRFSGSGSGTDFTLTISSLQPEDFATYYCQQSYTTPPTFGQGTKVEIKRTVAAPDIQMTQSPSSLSASVGDRVTITCKASENVVSYVSWYQQKPGKAPKLLIYGASNRNTGVPSRFSGSGSGTDFTLTISSLQPEDFATYYCGQSYNYPYTFGQGTKLEIKRTVAAPSVFIFPPSDEQLKSGTASVVCLLNNFYPREAKVQWKVDNALQSGNSQESVTEQDSKDSTYSLSSTLTLSKADYEKHKVYACEVTHQGLSSPVTKSFNRGEC |
| – | – | 23.6 nM | DVD534 (bispecific antibody, IgG1, DVD-Ig, outer AB071 / inner AB073; HC linker short, LC linker long; also called DVD534H; DVD534L) VH: EVQLVESGGGLVQPGGSLRLSCAASGFTINASWIHWVRQAPGKGLEWVGAIYPYSGYTNYADSVKGRFTISADTSKNTAYLQMNSLRAEDTAVYYCARWGHSTSPWAMDYWGQGTLVTVSSASTKGPEVQLQQSGPELEKPGASVKISCKASGYSFTGYNMNWVKQSNGKSLEWIGNIDPYFGGTNYNQKFKGKATLTVDKSSSTAYMQLKSLTSEDSAVYYCARNYDYDGGCFDYWGQGTTLTVSS VL: DIQMTQSPSSLSASVGDRVTITCRASQVIRRSLAWYQQKPGKAPKLLIYAASNLASGVPSRFSGSGSGTDFTLTISSLQPEDFATYYCQQSNTSPLTFGQGTKVEIKRTVAAPSVFIFPPQAVVTQESALTTSPGETVTLTCRSSTGAVTTSNYANWVQEKPDHLFTGLIGGTNNRAPGVPARFSGSLIGDKAALTITGAQTEDEAIYFCALWYSNHWVFGGGTKLTVLG |
| 2.67 nM | 4.63 nM | – | DVD650 (bispecific antibody, human IgG1, kappa, DVD-Ig; HC linker long, LC linker short; vectors V1/V2) heavy: not shown light: DIQMTQSPSSLSASVGDRVTITCRASQDVSTAVAWYQQKPGKAPKLLIYSASFLYSGVPSRFSGSGSGTDFTLTISSLQPEDFATYYCQQSYTTPPTFGQGTKVEIKRTVAAPDIQMTQSPSSVSASVGDRVTITCRASQGISSWLAWYQQKPGKAPNLLIYEASSLQSGVPSRFGGSGSGTDFTLTISSLQPEDFATYYCQQANGFPWTFGQGTKVEIKRTVAAPSVFIFPPSDEQLKSGTASVVCLLNNFYPREAKVQWKVDNALQSGNSQESVTEQDSKDSTYSLSSTLTLSKADYEKHKVYACEVTHQGLSSPVTKSFNRGEC |
| 1.51 nM | 449 nM | – | DVD660 (bispecific antibody, human IgG1, kappa, DVD-Ig; HC linker short, LC linker short; vectors V1/V2) heavy: not shown light: DIQMTQSPSSLSASVGDRVTITCSASQDISNYLNWYQQKPGKAPKVLIYFTSSLHSGVPSRFSGSGSGTDFTLTISSLQPEDFATYYCQQYSTVPWTFGQGTKVEIKRTVAAPDIQMTQSPSSLSASVGDRVTITCKASENVVSYVSWYQQKPGKAPKLLIYGASNRNTGVPSRFSGSGSGTDFTLTISSLQPEDFATYYCGQSYNYPYTFGQGTKLEIKRTVAAPSVFIFPPSDEQLKSGTASVVCLLNNFYPREAKVQWKVDNALQSGNSQESVTEQDSKDSTYSLSSTLTLSKADYEKHKVYACEVTHQGLSSPVTKSFNRGEC |
| 6.35 nM | 0.87 nM | – | DVD642 (bispecific antibody, human IgG1, kappa, DVD-Ig; HC linker long, LC linker long; vectors V1/V2) heavy: not shown light: DIQMTQSPSSLSASVGDRVTITCSASQDISNYLNWYQQKPGKAPKVLIYFTSSLHSGVPSRFSGSGSGTDFTLTISSLQPEDFATYYCQQYSTVPWTFGQGTKVEIKRTVAAPSVFIFPPDIQMTQSPSSVSASVGDRVTITCRASQGISSWLAWYQQKPGKAPNLLIYEASSLQSGVPSRFGGSGSGTDFTLTISSLQPEDFATYYCQQANGFPWTFGQGTKVEIKRTVAAPSVFIFPPSDEQLKSGTASVVCLLNNFYPREAKVQWKVDNALQSGNSQESVTEQDSKDSTYSLSSTLTLSKADYEKHKVYACEVTHQGLSSPVTKSFNRGEC |
| 3.71 nM | 0.91 nM | – | DVD654 (bispecific antibody, human IgG1, kappa, DVD-Ig; HC linker short, LC linker long; vectors V1/V2) heavy: not shown light: DIQMTQSPSSLSASVGDRVTITCSASQDISNYLNWYQQKPGKAPKVLIYFTSSLHSGVPSRFSGSGSGTDFTLTISSLQPEDFATYYCQQYSTVPWTFGQGTKVEIKRTVAAPSVFIFPPDIQMTQSPSSVSASVGDRVTITCRASQGISSWLAWYQQKPGKAPNLLIYEASSLQSGVPSRFGGSGSGTDFTLTISSLQPEDFATYYCQQANGFPWTFGQGTKVEIKRTVAAPSVFIFPPSDEQLKSGTASVVCLLNNFYPREAKVQWKVDNALQSGNSQESVTEQDSKDSTYSLSSTLTLSKADYEKHKVYACEVTHQGLSSPVTKSFNRGEC |
